From paper PMC3245711

Target: human KCNJ12 channel (pND-CTFH construct, C-terminal FLAG and octa-histidine tags) (human) (UniProt Q14500)
Experiment: SEC

Chain of human KCNJ12 channel (pND-CTFH construct, C-terminal FLAG and octa-histidine tags) (Q14500 whole entry): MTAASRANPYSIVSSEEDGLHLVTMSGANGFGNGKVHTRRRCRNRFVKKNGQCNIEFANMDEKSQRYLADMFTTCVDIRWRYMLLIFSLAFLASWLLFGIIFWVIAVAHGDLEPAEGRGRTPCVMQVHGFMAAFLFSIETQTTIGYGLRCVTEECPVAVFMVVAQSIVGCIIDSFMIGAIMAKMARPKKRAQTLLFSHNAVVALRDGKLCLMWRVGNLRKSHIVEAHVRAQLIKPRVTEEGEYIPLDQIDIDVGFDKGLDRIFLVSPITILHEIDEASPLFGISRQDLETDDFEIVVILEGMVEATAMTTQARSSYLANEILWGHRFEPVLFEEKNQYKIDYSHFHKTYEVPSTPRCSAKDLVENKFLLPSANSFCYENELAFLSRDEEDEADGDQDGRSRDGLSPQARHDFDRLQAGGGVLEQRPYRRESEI

human KCNJ12 channel (pND-CTFH construct, C-terminal FLAG and octa-histidine tags) (from UniProt Q14500 1-433) (natural protein)
stoichiometry N: 4
